Values quoted from earlier work, collected in publication PMC3800467.

Target: RRGHYY peptide

## TEM1 β-lactamase (from UniProt P62593)
  Ki: 140 µM
